Source: paper PMC4195752, “The Structure of an LIM-Only Protein 4 (LMO4) and Deformed Epidermal Autoregulatory Factor-1 (DEAF1) Complex Reveals a Common Mode of Binding to LMO4” (PLoS ONE, 2014)

Target: T1, LMO4 second LIM domain, residues 77-147 (in the tethered complex) (mouse, UniProt P61969 77-147)
T1 construct: LMO4, mouse, LIM2 domain, residues 77-147; also called LMO4_(LIM2); LMO4_(77–147)
T1 sequence (looked up): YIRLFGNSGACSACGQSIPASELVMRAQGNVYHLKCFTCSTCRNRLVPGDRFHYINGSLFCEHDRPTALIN
Test: NMR solution structure; the two domains tethered on one chain by a glycine-serine linker; 20 mM sodium acetate pH 5.0, 35 mM NaCl, 0.5 mM TCEP-HCl
Conditions: both partners purified

B1: DEAF1 residues 404-418 (in the tethered complex) (peptide, UniProt Q9Z1T5-1 404-418, looked up)
chain: IAPFPEAALPTSHPK
notes: Stood in the assay joined through a glycine-serine linker to the C-terminus of LMO4 77-147 on one chain; also called the DEAF1 peptide
binding result: binds
